# B1: OLR full-length gapA operator, 45 bp (dsDNA)
# DNA 1: TGACGGGACGTTTTTTGTCATAGCGGGACATATAATGTCCAGCAA
# DNA 2: TTGCTGGACATTATATGTCCCGCTATGACAAAAAACGTCCCGTCA
# B2: OR right half-operator, 23 bp (dsDNA)
# DNA 1: TAGCGGGACATATAATGTCCAGC
# DNA 2: GCTGGACATTATATGTCCCGCTA
# B3: OR 23 bp, fluorescent (mix of two singly labelled duplexes) (dsDNA)
# DNA 1: TAGCGGGACATATAATGTCCAGC
# DNA 2: GCTGGACATTATATGTCCCGCTA
# Assays:
# CggR [1] = target: T1, CggR (Bacillus subtilis, UniProt O32253 1-340); test: SEC and SAXS
# CggR [2] = target: T1, CggR; test: SEC and SAXS; remark: listed apart in the source
# CggR [3] = target: T1, CggR; test: two-photon FCCS
# T1 sequence (O32253 whole entry): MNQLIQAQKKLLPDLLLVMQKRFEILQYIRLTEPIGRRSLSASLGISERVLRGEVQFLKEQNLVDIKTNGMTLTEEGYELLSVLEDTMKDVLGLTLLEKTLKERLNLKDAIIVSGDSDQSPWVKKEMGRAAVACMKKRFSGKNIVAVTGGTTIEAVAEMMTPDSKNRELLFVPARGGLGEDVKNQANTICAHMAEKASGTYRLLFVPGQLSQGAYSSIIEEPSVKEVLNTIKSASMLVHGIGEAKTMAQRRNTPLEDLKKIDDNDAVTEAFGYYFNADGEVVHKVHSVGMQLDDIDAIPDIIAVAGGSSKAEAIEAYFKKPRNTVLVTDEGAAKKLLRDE
binder,measurement,setting,value
B1,binding result,CggR [1],binds
B2,binding result,CggR [2],binds
B3,binding result,CggR [3],binds

# Reference: article PMC2943609
